Source: patent US20230058316A1, “PEGYLATED IGE-DEPENDENT HISTAMINE-RELEASING FACTOR (HRF)-BINDING PEPTIDE AND USE THEREOF” (EWHA UNIVERSITY - INDUSTRY COLLABORATION FOUNDATION, priority 2020, published 2023)
Where two headings read alike, the source gives them in different places. Where no end group is shown, it is not given here.

Legend:
[1] = tested on: eosinophils in bronchoalveolar lavage fluid; experiment: Eosinophil increase in bronchoalveolar lavage fluid, ovalbumin-induced bronchial asthma and rhinitis mouse model; type: in vivo; details: 1 mg/kg IP, 8 times daily for 8 days, FIG. 9
Protocol: (§1) A bronchial asthma and rhinitis animal model was prepared by the following method. An ovalbumin solution was prepared by dissolving ovalbumin in an aluminum hydroxide solution (1 mg/ml) 28 and 14 days before the start of inducing bronchial asthma and rhinitis, and 200 μl of the solution was intraperitoneally injected into each mouse for sensitization. After 14 days of final sensitization, 20 μl of saline/PBS (normal control; NC) or 20 μl of 10 mg/mL ovalbumin solution (positive control; PC) was instilled into the nasal cavity of each lightly anesthetized mouse 4 times every other day for 8 days to induce bronchial asthma and rhinitis.
After anesthetizing the mouse by injecting a mixture of zoletil (250 mg/kg) and rompun (50 mg/kg) intraperitoneally, a 20-gauge catheter was inserted into the trachea by puncturing the trachea with a knife, and 0.6 mL of PBS at a time was injected-collected three times, and the collection rate was adjusted to 80%. The collected bronchoalveolar lavage fluid was centrifuged at 4° C., 3000 rpm for 10 minutes, and the cell precipitate was resuspended in 0.1 mL of PBS. 20 μL of the suspension was analyzed for the composition of blood cells using a fully automatic hematology analyzer (HEMAVET 950 FS, Drew Scientific, Inc.).

IL-5 = IL-5 secretion in bronchoalveolar lavage fluid, ovalbumin-induced bronchial asthma and rhinitis mouse model; type: in vivo; details: 1 mg/kg IP
Protocol: as §1
After the end of the experiment, the amount of IL-5 in the supernatant obtained by centrifuging bronchoalveolar lavage fluid was measured and quantified by enzyme immunosorbent detection using mouse IL-5 ELISA kit (Biolegend, USA).
(§2) Next, in order to confirm whether there is an effect of inhibiting IL-5 secretion even when administered in a small number of times, the dTBP2 of Preparative Example 4 and Example 3 was administered to the mouse model of Example 4-1 through intraperitoneal injection once in 4 days for a total of 2 times for 8 days inducing bronchial asthma and rhinitis. The amount of IL-5 was measured and quantified by the enzyme immunosorbent detection method in the same manner.
(§3) In addition, the dTBP2 of Preparative Example 4 and Example 3 was administered to the mouse model of Example 4-1 through intraperitoneal injection once on the 1st day of 8 days inducing bronchial asthma and rhinitis. The amount of IL-5 was measured and quantified by the enzyme immunosorbent detection method in the same manner.
The amount of IL-5 was measured and quantified by the enzyme immunosorbent detection method in the same manner.

IL-4 = IL-4 secretion in bronchoalveolar lavage fluid, ovalbumin-induced bronchial asthma and rhinitis mouse model; type: in vivo; details: 1 mg/kg IP
Protocol: as §1
After the end of the experiment, the amount of IL-4 in the supernatant obtained by centrifuging bronchoalveolar lavage fluid was measured and quantified by enzyme immunosorbent detection using mouse IL-4 ELISA kit (Biolegend, USA).
as §2, with “IL-4” for “IL-5”
as §3, with “IL-4” for “IL-5”
The amount of IL-4 was measured and quantified by the enzyme immunosorbent detection method in the same manner.

IL-13 = IL-13 secretion in bronchoalveolar lavage fluid, ovalbumin-induced bronchial asthma and rhinitis mouse model; type: in vivo; details: 1 mg/kg IP
Protocol: as §1
After the end of the experiment, the amount of IL-13 in the supernatant obtained by centrifuging bronchoalveolar lavage fluid was measured and quantified by enzyme immunosorbent detection using mouse IL-13 ELISA kit (R&D system, USA).
as §2, with “IL-13” for “IL-5”
as §3, with “IL-13” for “IL-5”
The amount of IL-13 was measured and quantified by the enzyme immunosorbent detection method in the same manner.

[2] = Pharmacokinetic analysis in ICR mice; type: in vivo; details: IV, 10 mg/kg
Protocol: The dTBP2 of Preparative Examples 4 and Example 3 was added to a solution prepared in DMSO:PEG400:DW=5:55:40, and this was administered at the concentration of 5 mL/kg. Blood samples were taken at 0.083, 0.25, 0.5, 1, 2, 4, and 8 hours post injection. The blood was centrifuged at 4° C., 3000 rpm for 10 minutes, to which cold acetonitrile containing internal standard was added in an amount 4 times the plasma component, and then deproteinization was carried out. After centrifugation again at 4° C., 13000 rpm for 10 minutes, the supernatant was collected and analyzed by Agilent 6460 LC-MS/MS. Pharmacokinetic analysis was performed with Phoenix WinNonlin (Pharsight ver 6.4, USA) using a non-compartmental analysis model.

[3] = microsomes; for Mouse (%) remaining after reaction: 0.5 h
Protocol: (§4) Upon completion of the reaction, cold acetonitrile containing internal standard was added, and then deproteinization was carried out. The reactant was centrifuged at 4° C., 4000 rpm for 15 minutes, and the supernatant was analyzed by LC-MS/MS. The system was verified with buspirone, a reference material.

[4] = microsomes; for Human (%) remaining after reaction: 0.5 h
Protocol: as §4

Substance: Example 3: dTBP2 (WYVYPSM) conjugated at the N-terminal with methoxy polyethylene glycol propionaldehyde (10 kDa) ({mPEG propionaldehyde 10 kDa}-WYVYPSM)
- reduction of increased eosinophils vs positive control [1]: about 55%
- reduction of IL-5 secretion (IL-5; 8 times daily for 8 days, FIG. 10): about 50%
- inhibiting IL-5 secretion (IL-5; once in 4 days for a total of 2 times (FIG. 11) and once on the 1st day (FIG. 12)): effective
- IL-5 secretion inhibitory effect (IL-5; once on the 5th day of 8 days, FIG. 13): effectively inhibited
- reduction of IL-4 secretion (IL-4; 8 times daily for 8 days, FIG. 14): about 60%
- inhibiting IL-4 secretion (IL-4; once in 4 days for a total of 2 times (FIG. 15) and once on the 1st day (FIG. 16)): effective
- IL-4 secretion inhibitory effect (IL-4; once on the 5th day of 8 days, FIG. 17): effectively inhibited
- reduction of IL-13 secretion (IL-13; 8 times daily for 8 days, FIG. 18): about 20%
- inhibiting IL-13 secretion (IL-13; once in 4 days for a total of 2 times (FIG. 19) and once on the 1st day (FIG. 20)): effective
- IL-13 secretion inhibitory effect (IL-13; once on the 5th day of 8 days, FIG. 21): inhibitory effect
- AUClast [2]: 2830 ng·h/mL
- AUC∞ [2]: 3150 ng·h/mL
- CL (clearance from plasma) [2]: 54.8 mL/min/kg
- T1/2 (half life) [2]: 3.18 h
- Vss (steady-state volume of distribution) [2]: 7.37 L/kg
- increase of half-life compared to the dTBP2 of Preparative Example 4 [2]: about 1.6 times
- initial plasma concentration relative to the dTBP2 of Preparative Example 4 [2]: about 1000 times
- stability in plasma ([2]; FIG. 26, versus Preparative Example 4): improved
- Mouse (%) remaining after reaction [3]: more than 75%
- Mouse (%) remaining after reaction ([3]; pH 7.4): 75.26%
- half-life according to the evaluation criteria ([3]; mouse): 1 to 3 h
- half-life according to the evaluation criteria ([4]; human): 1 to 3 h
- Human (%) remaining after reaction [4]: more than 75%
- Human (%) remaining after reaction ([4]; pH 7.4): 75.77%
